Substitutions are numbered along the chain they refer to. Blank lines part the entries; values can stand above or below the binder they belong to.
Key:
[1] = target: T1, human IgE (myeloma IgE) (human, UniProt P01854-1 1-428); experiment: SPR, Biacore T2000, myeloma IgE amine-coupled to CM5 chip, antibody in solution
T1 construct: Myeloma IgE coupled by amine coupling to a CM5 chip for Biacore; Also used to sensitize human FcεRIα-expressing 3D10 cells; also called PS IgE
Description: (§1) The complementary determining region (CDR) sequences and the specificity-determining residues (SDR) of each heavy chain variable (VH) and light chain variable (VL) regions were engrafted into the framework (FR) regions of the most homologous human germline sequences. All the recombinant mAbs were transiently expressed in 293 cells in small scale (50 ml transfection volume) and purified by protein A affinity column for downstream application. The humanized mAbs not expressing or expressing <1 μg/ml recombinant antibody were eliminated. The affinity of humanized LAAIGE (hLAAIGE) to […] was determined by the surface plasmon resonance using Biacore T2000 instrument (Biacore AB, Uppsala, Sweden) with a CM5 sensor chip coupled with myeloma IgE by amine coupling. The purified hLAAIGEs were dissolved in HBS-EP assay buffer containing 0.15 M NaCl, 10 mM HEPES, pH 7.4, 3 mM EDTA, and 0.005% polysorbate 20. The solutions traversed the sensors at a flow rate of 50 μl/minute for binding analysis. Binding results were expressed in resonance units. Kinetic studies were analyzed with BIAevaluation Software Version 4.1. […] The binding of the selected hLAAIGE to the cell surface-bound IgE was confirmed using the human FcεRIα expressing 3D10 cells sensitized with myeloma IgE.

[2] = target: T1, human IgE (myeloma IgE); experiment: SPR (Biacore method); range told of the group, this end tied to H6.2 by paragraph 147
Description: as §1

[3] = target: T1, human IgE (myeloma IgE); experiment: binding affinity for human IgE; method not stated for the founders
[4] = target: T1, human IgE (myeloma IgE); experiment: SPR (Biacore method); range told of the group, this end tied to E14 by paragraph 147
Description: as §1

[5] = target: T1, human IgE (myeloma IgE); experiment: SPR, Biacore T2000; range told of the chosen antibodies, this end tied to S91 by paragraph 147
Description: as §1

T1 sequence (P01854 other isoform, or with tags, fused parts or gaps): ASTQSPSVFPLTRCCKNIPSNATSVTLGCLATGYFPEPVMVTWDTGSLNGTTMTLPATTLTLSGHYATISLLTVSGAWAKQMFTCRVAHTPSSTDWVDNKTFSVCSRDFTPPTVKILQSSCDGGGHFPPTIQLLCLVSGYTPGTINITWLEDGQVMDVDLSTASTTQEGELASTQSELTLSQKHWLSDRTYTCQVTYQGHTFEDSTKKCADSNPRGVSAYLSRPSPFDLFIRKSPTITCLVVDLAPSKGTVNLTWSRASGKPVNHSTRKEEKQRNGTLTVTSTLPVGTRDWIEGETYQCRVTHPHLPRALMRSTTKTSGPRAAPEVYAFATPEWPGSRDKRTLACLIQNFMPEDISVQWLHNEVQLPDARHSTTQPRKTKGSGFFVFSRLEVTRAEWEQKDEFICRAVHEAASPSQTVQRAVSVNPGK

Kd [1]: ~50000 nM
Kd [2]: 50000 nM
B1: hLAAIGE H6.2 (antibody, human IgG1, lambda, V domains shown)
VH: QVQLGQSGGGVVQPGRSLRLSCAASGFTFSNYLIEWVRQAPGKGLEWVAVINPGSGFTKYNEKFKQRFTISRDNSKNTLYLQMNSLRAEDTAVYYCAREDVYSWFAYWGQGTLVTVSA
VL: QSALTQPASVSGSPGQSITISCTRASESVDSYGNSFMHQHHPGKAPKLMIYEVRTSNLESSNRFSGSKSGNTASLTISGLQAEDEADYYCSSQQSYEDPFTFGSGTKLGQPK
notes: The entries are labelled 'VH' and 'VL' but are full heavy (human IgG1) and lambda light chains; Humanized, derived from Founder P6.2

Kd [3]: ~2540 nM
B2: Founder P6.2 (low affinity anti-human IgE founder mouse mAb) (antibody, V domains shown)
VH: QVQLQQSGAELVRPGTSVKVSCKASGYAFTNYLIEWVKQRPGQGLEWIGVINPGSGFTKYNEKFKGKATLTADKSSSTAYMHLSSLTSDDSAVYFCAREDVYSWFAYWGQGTLVTVSA
VL: DIVLTQSPASLAVSLGQRATISCRASESVDSYGNSFMHWYQQKPGQPPKLLIYRTSNLESGIPARFSGSGSRTDFTLTINPVEADDVATYFCQQSYEDPFTFGSGTKLEIK
notes: Mouse hybridoma mAb

Kd [1]: 67.2 nM
Kd [4]: 70 nM
B3: hLAAIGE E14 (antibody, human IgG1, kappa, V domains shown)
VH: QVQLVQSGSELKKPGASVKVSCKASGYTFTNYGMNWVRQAPGQGLEWMGWINTYTGEPTYADDFKGRFVFSLDTSVSTAYLQISSLKAEDTAVYYCARGAASHTMDYWGQGTTVTVSS
VL: DIVMTQSPDSLAVSLGERATINCRASQSVSTSAHSYMHWYQQKPGQPPKLLIYYASNLESGVPDRFSGSGSGTDFTLTISSLQAEDVAVYYCQHSWEIPWTFGQGTKLEIKR
notes: The entries are labelled 'VH' and 'VL' but are full heavy (human IgG1) and kappa light chains; Humanized, derived from Founder E17

Kd [1]: 140 nM
B4: hLAAIGE E17 (antibody, human IgG1, kappa, V domains shown)
VH: B3 VH
VL: B3 VL with A33S, S35A
notes: Humanized clone E17, a different molecule from the mouse Founder E17; The entries are labelled 'VH' and 'VL' but are full heavy (human IgG1) and kappa light chains

Kd [1]: 109 nM
B5: hLAAIGE E23 (antibody, human IgG1, kappa, V domains shown)
VH: B3 VH
VL: B3 VL with A33S, H34Y, E59K, S60A
notes: as for B3

Kd [1]: 164 nM
B6: hLAAIGE E59 (antibody, human IgG1, kappa, V domains shown)
VH: B3 VH
VL: B3 VL with A33S
notes: Humanized, derived from Founder E17; Expressed in 293 cells

Kd [5]: 7000 nM
Kd [1]: 7410 nM
B7: hLAAIGE S91 (antibody, human IgG1, lambda, V domains shown)
VH: QVQLVQSGAEVKKPGASVKVSCKASGYTFTSYGISWVRQAPGQGLEWMGWISAYNGNTNYAQKLQGRVTMTTDTSTSTAYMELRSLRSDDTAVYYCARVSSWPYWYFDLWGRGTLVTVSS
VL: QSAVTQPPSASGSPGQSVTISCTGTSSDVGAYDYVSWYQQHPGKAPKLMIYEVSKRPSGVPDRFSGSKSGNTASLTVSGLQAEDEADYYCSSYAGRVDVFGGGTKLTVLG
notes: The entries are labelled 'VH' and 'VL' but are full heavy (human IgG1) and lambda light chains; Humanized, derived from Founder F11

Reference: patent US20230090487A1 (published 2023)
